The values below come from the RNAGym collection of RNA variant scans (doi:10.7554/elife.80360).

The chains are these.
B1: CPEB3 Ribozyme (parent)
chain: GGGGGCCACAGCAGAAGCGUUCACGUCGCGGCCCCUGUCAGAUUCUGGUGAAUCUGCGAAUUCUGCUGU

Variants of B1 are the subject of this series. The experiment in a line: self-cleavage, relative activity (ratio to wild type); higher = more cleavage; co-transcriptional.
Regarding C32A G58U, the self-cleavage came to 0.914.
Take C32U U49G: the self-cleavage came out at 1.01.
Regarding C32U U49C, the self-cleavage stood at 1.
As for C32U C39A, the self-cleavage worked out at 0.915.
On to C32U C39G, for which the self-cleavage was determined as 0.996.
For the variant G30C C57A, the self-cleavage stood at 0.302.
Turning to G30C C57U, the self-cleavage came out at 0.244.
Consider G31U U61C, for which the self-cleavage was found to be 0.258.
Consider C32G U69G, for which the self-cleavage came out at 0.775.
For C32G U69A, the self-cleavage came to 0.709.
Turning to C32G U44C, the self-cleavage was 0.452.
The result for G31U U67C reads 0.939.
Turning to C32G U49G, the self-cleavage is 0.371.
G30A U49A: the self-cleavage was 0.89.
Take C32A G47U: the self-cleavage was 0.897.
Turning to C32G G58U, the self-cleavage amounted to 0.622.
Take C32G G58C: the self-cleavage stood at 0.478.
As to G30A U69G, the self-cleavage came out at 1.01.
For the variant G31C C34A, the self-cleavage was found to be 0.341.
For C32A C33G the value was 0.258; for C32U G65U, 0.806.
As for G30C G48U, the self-cleavage is 0.706.
Regarding G31U G50A, the self-cleavage is 0.758.
In the case of C32G C63U, the self-cleavage worked out at 0.358.
Take C32G C63G: the self-cleavage came out at 0.233.
With C32A A60G, the self-cleavage was determined as 0.454.
For G30U U64C the value was 0.353; for G30A U55A, 0.638; for G31A C33G, 0.282.
As to C32G C35U, the self-cleavage was 0.377.
G31C U69A: the self-cleavage was determined as 0.381.
Take G31C U69C: the self-cleavage was determined as 0.451.
The result for C32G C57A reads 0.252; that for C32G C57U, 0.234.
For G31U A40U the value was 0.352.
The result for C32G C34A reads 0.303.
For the variant C32G C34G, the self-cleavage was determined as 0.212.
On to G30C G56C, for which the self-cleavage is 0.236.
The result for G30C G56U reads 0.404; that for G30U U67G, 0.724.
In the case of G30U U67C, the self-cleavage turned out to be 0.624.
Consider G31A G48C, for which the self-cleavage turned out to be 0.9.
Take G31A G48A: the self-cleavage was found to be 0.945.
As to C32A C39G, the self-cleavage was found to be 0.6.
Turning to C32G G65U, the self-cleavage stood at 0.267.
As for G31A C63A, the self-cleavage is 0.32.
Turning to G30C A42U, the self-cleavage stood at 0.41.
Take G30C C39G: the self-cleavage is 0.403.
The result for C32A U43G reads 0.374; that for G30U C35U, 0.292; that for G30C C45G, 0.578.
Regarding G31A A59G, the self-cleavage came to 0.811.
In the case of G31A U55G, the self-cleavage stood at 0.569.
Regarding G31A U55C, the self-cleavage was 0.547.
As to G31A U55A, the self-cleavage amounted to 0.662.
Take C32U G56C: the self-cleavage is 0.858.
The result for G30A U62G reads 0.413.
For G30A U62A the value was 0.445; for G31A G41A, 0.525; for G31A U53G, 0.573.
As to C32U A40U, the self-cleavage came to 0.871.
Regarding C32U A40G, the self-cleavage stood at 0.95.
The result for C32U A40C reads 0.734; that for G31U C32A, 0.321.
On to G31U G65A, for which the self-cleavage was found to be 0.517.
With G31U U69G, the self-cleavage was found to be 1.02.
As to G30C U62C, the self-cleavage amounted to 0.424.
As to G30C U36C, the self-cleavage is 0.273.
Consider C32U U36A, for which the self-cleavage came to 0.216.
For the variant C32U U36C, the self-cleavage came out at 0.973.
Consider C32U G58C, for which the self-cleavage stood at 0.963.
In the case of C32U G58U, the self-cleavage turned out to be 0.995.
The result for G31C A42C reads 0.227; that for G31A A60U, 0.322.
For the variant G31A A60C, the self-cleavage is 0.304.
On to G30U G56U, for which the self-cleavage was 0.231.
For G31C C35G, the self-cleavage was determined as 0.141.
Turning to G30U U46G, the self-cleavage was found to be 0.441.
For the variant G31U C33A, the self-cleavage amounted to 0.235.
As to G31U U44G, the self-cleavage amounted to 0.3.
Take G31U U44A: the self-cleavage was 0.577.
For the variant G30U G50C, the self-cleavage came out at 0.294.
Turning to G30U G50U, the self-cleavage was determined as 0.47.
Consider G30U G50A, for which the self-cleavage is 0.335.
For G31A G47A, the self-cleavage came to 0.897.
In the case of G31A G47C, the self-cleavage was 0.921.
For G30C G65U the value was 0.371; for G30C G65A, 0.459; for G31C U62C, 0.258.
For the variant G31C U62A, the self-cleavage came to 0.151.
As for G31A C66A, the self-cleavage is 0.7.
Regarding G31A C66U, the self-cleavage turned out to be 0.913.
As for G30C C63A, the self-cleavage was found to be 0.292.
The result for G30C U43A reads 0.438; that for C32U G47C, 0.97; that for C32U G47A, 0.971.
Turning to G31C U44C, the self-cleavage turned out to be 0.27.
On to G31C U55G, for which the self-cleavage worked out at 0.136.
For the variant G31U C57G, the self-cleavage is 0.236.
For the variant G31A U61C, the self-cleavage amounted to 0.327.
In the case of C32U A60U, the self-cleavage worked out at 0.478.
With C32U A60C, the self-cleavage was 0.363.
Turning to G31U A42U, the self-cleavage stood at 0.485.
With C32U G50C, the self-cleavage was 0.991.
As for G31A U46C, the self-cleavage was 0.9.
G31A U46G: the self-cleavage was 0.962.
Regarding G30C U61C, the self-cleavage was 0.242.
As to G30C U61A, the self-cleavage worked out at 0.258.
With G31A U69C, the self-cleavage worked out at 1.03.
In the case of G31A U69A, the self-cleavage was found to be 0.991.
For C32G U55A the value was 0.268; for C32U C63G, 0.933; for G30A U61G, 0.447.
For the variant G30A U61C, the self-cleavage came out at 0.39.
For C32A C34G the value was 0.228.
G31U C63G: the self-cleavage turned out to be 0.454.
The result for G31U C63A reads 0.25; that for C32U C54G, 0.819.
For the variant G31A C35U, the self-cleavage is 0.522.
For G31A C35A the value was 0.232.
On to G31C G58U, for which the self-cleavage turned out to be 0.209.
For G31C G58C, the self-cleavage turned out to be 0.179.
For the variant C32A C57A, the self-cleavage is 0.245.
Take G30U C32G: the self-cleavage was found to be 0.216.
On to G30U C32U, for which the self-cleavage stood at 0.181.
For G31A A52U, the self-cleavage was 0.888.
Turning to G31A A52G, the self-cleavage worked out at 0.907.
On to G31U C34U, for which the self-cleavage was 0.363.
For C32A C66G the value was 0.708.
For G31U U55A the value was 0.428; for G30C G41C, 0.232.
For the variant G30C G41U, the self-cleavage was 0.336.
For C32G U46C the value was 0.594; for G31A G58U, 0.974.
In the case of G31A G58C, the self-cleavage worked out at 0.812.
For G31U A52C, the self-cleavage is 0.556.
The result for C32U A51U reads 0.982.
As to C32U A51G, the self-cleavage was 1.
Regarding G30U A40C, the self-cleavage came out at 0.192.
As to G30U A40U, the self-cleavage was 0.214.
As to C32A A52G, the self-cleavage was 0.431.
For the variant C32A A51C, the self-cleavage was 0.391.
The result for C32A A51U reads 0.566; that for G31U G56C, 0.385.
In the case of C32G G68U, the self-cleavage turned out to be 0.815.
For the variant G31A C39A, the self-cleavage is 0.494.
As for C32G C45A, the self-cleavage came to 0.381.
With C32G C45U, the self-cleavage was 0.573.
The result for G31C U43A reads 0.193; that for C32U U55C, 0.837; that for C32A A42G, 0.448.
For the variant C32A U36G, the self-cleavage is 0.263.
G30U C63U: the self-cleavage turned out to be 0.279.
Turning to G31C A40C, the self-cleavage turned out to be 0.203.
For G31C A40U the value was 0.165.
G30C C32U: the self-cleavage was 0.636.
Take G30C C32G: the self-cleavage stood at 0.225.
On to G31A U67G, for which the self-cleavage is 1.01.
For G31U G68U, the self-cleavage stood at 0.974.
Take G31U G68C: the self-cleavage was 0.958.
The result for G31U C45U reads 0.789.
On to G31C U67C, for which the self-cleavage was 0.358.
Turning to G31C C54U, the self-cleavage came to 0.308.
On to G30C G31U, for which the self-cleavage stood at 0.224.
For C32G A52U the value was 0.48.
As to C32G A52G, the self-cleavage worked out at 0.364.
In the case of C32A G56C, the self-cleavage came to 0.478.
